Data published in patent publication US20200369772A1 (ABBA THERAPEUTICS, published 2020).

T1: human PD-L2 (full-length, on cells) (human, UniProt Q9BQ51 20-273)
T1 construct: whole, on cells; CHO-K1 cells stably expressing full-length human PD-L2; also endogenous on NCI-H226 and transfected in Jurkat cells; also called hPD-L2; CHO-K1/hPD-L2
T1 sequence (looked up): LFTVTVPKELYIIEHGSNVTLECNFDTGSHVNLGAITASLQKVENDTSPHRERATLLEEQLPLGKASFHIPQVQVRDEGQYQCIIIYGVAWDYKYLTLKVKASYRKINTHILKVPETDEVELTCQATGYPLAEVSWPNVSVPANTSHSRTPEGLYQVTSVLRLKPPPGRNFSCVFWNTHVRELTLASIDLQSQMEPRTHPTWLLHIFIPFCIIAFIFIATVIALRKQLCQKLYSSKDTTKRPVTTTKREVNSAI

T2: recombinant human PD-L2-Fc-biotin (human, UniProt Q9BQ51 20-220, biotin)
T2 chain: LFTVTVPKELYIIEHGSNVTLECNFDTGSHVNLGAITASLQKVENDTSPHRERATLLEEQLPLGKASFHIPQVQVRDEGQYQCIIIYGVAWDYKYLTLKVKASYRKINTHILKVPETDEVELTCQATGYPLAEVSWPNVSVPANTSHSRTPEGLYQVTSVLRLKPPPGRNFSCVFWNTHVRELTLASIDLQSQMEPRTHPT

T3: human PD-L2 (full-length, on cells) (human, UniProt Q9BQ51 20-273)
T3 chain: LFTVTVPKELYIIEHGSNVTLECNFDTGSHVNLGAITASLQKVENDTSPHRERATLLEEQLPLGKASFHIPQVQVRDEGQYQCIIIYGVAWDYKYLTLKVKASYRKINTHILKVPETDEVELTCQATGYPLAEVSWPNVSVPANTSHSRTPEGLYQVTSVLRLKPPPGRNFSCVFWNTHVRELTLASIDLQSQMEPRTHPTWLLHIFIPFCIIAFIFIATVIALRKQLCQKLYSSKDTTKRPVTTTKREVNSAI

T4: mouse PD-L2 (full-length, on cells) (mouse, UniProt Q9WUL5 20-247)
T4 construct: whole, on cells; HEK293 cells stably expressing full-length mouse PD-L2
T4 sequence (looked up): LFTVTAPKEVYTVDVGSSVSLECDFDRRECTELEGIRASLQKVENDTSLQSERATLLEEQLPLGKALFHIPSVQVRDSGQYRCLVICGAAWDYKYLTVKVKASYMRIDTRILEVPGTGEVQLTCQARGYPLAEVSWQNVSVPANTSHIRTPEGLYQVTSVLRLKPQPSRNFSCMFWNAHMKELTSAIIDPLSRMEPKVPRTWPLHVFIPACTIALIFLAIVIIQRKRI


Key:
[1] = target: T1, human PD-L2 (full-length, on cells); assay: hybridoma supernatant screen on cells expressing human PD-L2
[2] = target: T5, human PD-L1 (full-length, on cells) (human, UniProt Q9NZQ7 19-290); assay: FACS on HEK293 cells stably expressing full-length human PD-L1
T5 construct: whole, on cells; HEK293 cells stably expressing full-length human PD-L1
Method: (§1) The ability of anti-PD-L2 antibodies binding to mouse PD-L2, human PD-L1 or cyno PD-L2 was determined by FACS. HEK293 cells stably expressing full-length monkey PD-L2, mouse PD-L2 or human PD-L1 were established, subcloned and verified. For binding assay, 1.5×10⁵ cells in 100 μl of FACSwash buffer were incubated with individual anti-PD-L2 antibodies (0.5 μg/ml) for 30 min. After three times of washing, the cells were re-suspended in FACSwash buffer containing FITC-labelled goat-anti-rat IgG (Thermo Fisher, 1:1000) or APC-labelled goat-anti-ratIgG (Biolegend, Clone Poly4054) at a 1:2000 dilution for 20 min at 4° C., washed three times and subsequently subjected to FACS analysis. FACS data was analysed using FlowJo Software and depicted as histograms including secondary antibody only controls.

[3] = target: T2, recombinant human PD-L2-Fc-biotin; assay: blocking of PD-L2 - PD-1 interaction (cell binding); low antigen concentration
Method in brief: (§2)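 Serially diluted antibody (0.03 ng/ml-0.5 μg/ml) was preincubated for 60 min at 4° C with recombinant human PD-L2-Fc-biotin (5 ng/ml, 100 pM) in 100 μl. The mixture was added for 30 min at 4° C to 1.5×10⁵ HEK293 cells stably expressing human PD-1. Bound ligand was detected with fluorochrome-conjugated streptavidin (20 min, 4° C) by flow cytometry, with unspecific IgG wells setting 0% and 100% binding. IC50 came from non-linear curve fitting in GraphPad Prism.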

[4] = target: T2, recombinant human PD-L2-Fc-biotin; assay: blocking of hPD-L2 binding to HEK293-hPD-1 cells
Method in brief: as §2

[5] = target: T3, human PD-L2 (full-length, on cells); assay: FACS, NCI-H226 cells
Method in brief: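 Flow cytometry on a BD FACSCalibur was used to measure binding to endogenous PD-L2 on NCI-H226 human lung squamous carcinoma cells, with 1.5×10⁵ cells used. Staining was done with APC-labelled goat anti-rat IgG at 1:2000 for 20 min at 4° C. The binding EC50 was obtained in GraphPad Prism by non-linear fitting of percentage of maximal binding against concentration.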

[6] = target: T3, human PD-L2 (full-length, on cells); assay: FACS binding to CHO-K1 cells expressing human PD-L2
Method in brief: (§3)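 CHO-K1 cells stably expressing full-length human PD-L2 were stained for 20 min at 4° C with an APC-labelled anti-rat IgG or anti-human IgG Fc suited to the antibody format. Binding was read by flow cytometry on a BD FACSCalibur, and binding EC50 was obtained by non-linear fitting of percentage of maximal binding against concentration in GraphPad Prism.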

[7] = target: T4, mouse PD-L2 (full-length, on cells); assay: FACS on HEK293 cells stably expressing full-length mouse PD-L2
Method: as §1

[8] = target: T3, human PD-L2 (full-length, on cells); assay: blocking of hPD-1 binding to CHO-K1/hPD-L2 cells
Method in brief: (§4)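 IC50 values were obtained with GraphPad Prism by non-linear curve fitting of flow cytometry data on PD-1 binding to PD-L2-expressing cells. For this, 1.5×10⁵ CHO-K1 cells stably carrying human PD-L2 were incubated for 30 min at 4° C with antibody in serial dilutions from 0.25 ng/ml to 4 μg/ml, then for 30 min at 4° C with 0.5 μg/ml recombinant human PD-1-mouse Fc. Detection used fluorochrome-conjugated anti-mouse IgG2a at 1:200 for 20 min at 4° C, with reference wells fixing 0% and 100% binding.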

[9] = target: T3, human PD-L2 (full-length, on cells); assay: FACS, CHO-K1 expressing human PD-L2
Method in brief: as §3

[10] = target: T3, human PD-L2 (full-length, on cells); assay: FACS blocking of PD-1 binding to CHO-K1/hPD-L2; high antigen concentration
Method in brief: as §4

[11] = target: T3, human PD-L2 (full-length, on cells); assay: FACS binding to CHO-K1 cells expressing human PD-L2
Method in brief: as §3

[12] = target: T1, human PD-L2 (full-length, on cells); assay: FACS binding on cells expressing human PD-L2 (per the examples)

T5 sequence (Q9NZQ7 19-290): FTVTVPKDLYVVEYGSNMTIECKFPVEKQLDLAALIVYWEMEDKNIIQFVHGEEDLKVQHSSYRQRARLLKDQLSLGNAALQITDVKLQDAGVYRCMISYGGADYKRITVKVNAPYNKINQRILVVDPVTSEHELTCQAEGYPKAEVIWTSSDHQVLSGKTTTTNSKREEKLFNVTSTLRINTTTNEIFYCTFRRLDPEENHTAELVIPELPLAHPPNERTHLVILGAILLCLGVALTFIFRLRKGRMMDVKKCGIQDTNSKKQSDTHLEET

Row | binding result [1] | binding result [2] | IC50 [3] [nM] | IC50 [4] [nM] | EC50 [5] [nM] | EC50 [6] [nM] | binding result [7] | IC50 [8] [nM] | EC50 [9] [nM] | IC50 [10] [nM] | EC50 [11] [nM] | binding result [12] | Binder
1 | binds | no binding (tested: 0.5 µg/ml) | 0.0103 | 0.013 | 0.0989 | 0.42 | no binding (tested: 0.5 µg/ml) | 0.37 | 0.265 | 0.127 | – | – | 12A1-D4 (antibody, V domains shown, Both formats under this entry) VH: QVQLQESGPGLVKPSGTLSLTCAVSGGSISSNNWWSWVRQPPGKGLEWIGEIFHVGSTNYNPSLKSRVTISVDKSKNQFSLKLSSLTAADTAVYYCARMVGATGHYYGMDVWGQGTTVTVSS VL: DIQLTQSPSFLSASVGDRVTITCRASQGISSSLAWYQQKPGKAPKFLIYAASTLQSGVPSRFSGSGSGTEFTLTISSLQPEDFATYYCQQLNSYPKSWTFGQGTKVEIK
2 | binds | no binding (tested: 0.5 µg/ml) | 0.0248 | 0.017 | 0.177 | 0.34 | no binding (tested: 0.5 µg/ml) | 0.4 | 0.338 | 0.464 | 0.37 | – | 19B3-B3 (antibody, V domains shown, Both formats under this entry) VH: QVQLVQSGAEVKKPGASVKVSCMASGYTFTNYAIHWVRQAPGQRLEWMGWINTGLGKPKYSQMFQDRVTITRDTSASTASMELSGLRSDDTAVYYCARVGWELYFDYWGQGTLVTVSS VL: DIQMTQSPSTLSASVGDRVTITCRASQSISSLLAWYQQKPGKAPKLLIYKASSLESGVPSRFSGSGSGTEFTLTISSLQPDDFATYFCQQYNSYWTFGQGTKVEIK
3 | binds | no binding (tested: 0.5 µg/ml) | 0.0375 | 0.029 | 0.644 | – | no binding (tested: 0.5 µg/ml) | 1.2 | 0.873 | 0.733 | – | – | 9A3-C7 (antibody, V domains shown, Both formats under this entry) VH: QVQLVESGGGLVKPGGSLRLSCAASGFSLSDYYMSWIRQAPGRGLEWVSYISSSGSTIYYVDSVKGRFTISRDNAKNSLYLQINSLRAEDTAVYHCARAQWLPDFDYWGQGTLVTVSS VL: QSALTQPPSASGSPGQSVTISCTGTSSDVGGYNYVSWYQHHPGKVPKLMIYEVSKRPSGVPDRFSGSKSGNTASLTVSGLQAEDEADYYCTSFADNNNVGFGGGTKLTVLG

More lines, now with the values behind:

Row | Binder | binding result [1] | binding result [2] | IC50 [3] [nM] | IC50 [4] [nM] | EC50 [5] [nM] | EC50 [6] [nM] | binding result [7] | IC50 [8] [nM] | EC50 [9] [nM] | IC50 [10] [nM] | EC50 [11] [nM] | binding result [12]
4 | 10D1-G1 (antibody, V domains shown, Both formats under this entry) VH: QVQLQESGPGLVKPSGTLSLTCAVSGGSISSSYWWSWVRQPPGKGLEWIGEIFHIGSTNYNPSLRSRVTISVVKSKNQFSLNLNSVTAADTAVYFCARVSGGYGYFSGMDVWGQGTTVTVSS VL: DIQMTQSPSSLSASVGDRVTITCRASQGIRNDLGWYQQKPGKAPKRLIYGASSLQSGVPSRFSGSGSGTEFTLTISSLQPEDFATYYCLQHNSYPRTFGQGTKVEIK | – | no binding (tested: 0.5 µg/ml) | 0.0252 | 0.014 | 0.146 | 0.38 | no binding (tested: 0.5 µg/ml) | 0.4 | 0.408 | 0.343 | 0.37 | binds
5 | 10A9-D2 (antibody, V domains shown, Both formats under this entry) VH: QVQLQESGPGLVKPSETLSLTCAVSGGSISSSYWWSWVRQPPGKGLEWVGEVFHVGVTNYNPSLKSRVTISVDKSKNQFSLKLTSVTAADTAVYYCARVTGTTGYYHGLDVWGQGTTVTVFS VL: DIQMTQSPSSLSASVGDRVTITCRASQGIRNDLGWYQQKPGKVPKRLIYAASSLQSGIPSRFSGSGSGTEFTLTISSLQPEDFATYYCLQHNNYPRTFGQGTKVEIK | binds | no binding (tested: 0.5 µg/ml) | 0.0103 | 0.012 | 0.0776 | 0.38 | no binding (tested: 0.5 µg/ml) | 0.34 | 0.252 | 0.198 | 0.32 | –
6 | 2-19H2 (antibody, V domains shown, VH of 19B3-B3 M23K.M63L.HC with VL of 2C4-E4; kappa; also called 2-H192) VH: QVQLVQSGAEVKKPGASVKVSCKASGYTFTNYAIHWVRQAPGQRLEWMGWINTGLGKPKYSQLFQDRVTITRDTSASTASMELSGLRSDDTAVYYCARVGWELYFDYWGQGTLVTVSS VL: DIQMTQSPSTLSASVGDRVTITCRASQTISSWLAWYQQKPGKAPNLLIYKASSLESGVPSRFSGSGSGTEFTLTISSLQPDDFATYYCQQYYSYWTFGQGTKVEIK | – | – | – | – | – | – | – | – | – | – | – | binds
7 | 7H5-C5 (antibody, V domains shown, Both formats under this entry) VH: QVQLVESGGGLVKPGGSLRLSCAASGFSLSDYYMSWTRQAPGRGLEWVSFISSSGSTIYYVDSVKGRFTISRDHAKNSLYLQINSLRAEDTAVYYCARAQWLPDFDYWGQGTLVTVSS VL: QSALTQPPSASGSPGQSVTISCTGTSSDVSGYNYVSWYQHHPDKAPKLLIYEVNKRPSGVPARFSGSKSGNTASLTVSGLQAEDEADYYCTSFADNNNVVFGGGTKLTVLG | binds | no binding (tested: 0.5 µg/ml) | 0.0311 | 0.026 | 0.517 | 1.6 | no binding (tested: 0.5 µg/ml) | 0.93 | 0.765 | 0.58 | – | –
